The values below come from patent US20250230224A1.

In general, Kd refers to a measure of binding affinity in units of concentration.

The target in assay [1] is BoNT/F7. The assay is described as follows: KinExA, IgG. A general note: Kinetic exclusion samples the free partner from a solution-phase mixture.
Assay [2] addresses BoNT/F6. The experiment in a line: KinExA, IgG.
The target of assay [3] is BoNT/F5. The experiment in a line: KinExA, IgG.
Assay [4] addresses BoNT/F4. The experiment in a line: KinExA, IgG.
The target in assay [5] is BoNT/F2. The assay is described as follows: KinExA, IgG.
Assay [6] concerns the target BoNT/F3. The experiment in a line: KinExA, IgG.
Assay [7] has as its target Mosaic botulinum neurotoxin BoNT/DC (Clostridium botulinum). The experiment in a line: KinExA flow fluorimetry, solution phase, IgG.
For assay [8], the target named is Mosaic botulinum neurotoxin BoNT/CD (Clostridium botulinum). The assay is described as follows: KinExA flow fluorimetry, solution phase, IgG.

B1: Hu6F13.4 IgG (antibody, V domains shown)
VH: QVQLVQSGAEVKKPGASVKVSCKASGYSFTSYWMHWVRQAPGQGLEWIGFINPINGGIIYNEKFRFRATLTVDTSISTAYMELSRLRSDDTAVYYCARAGYYGSSRHFDVWGQGTLLTVSS
VL: ETTLTQSPSSLSASVGDRVTITCRASQGIRNYLAWYQQKPGKAPKLLIYDASNLETGVPSRFSGSGSGTDFTFTISSLQPEDFATYYCLQTSSTPWTFGQGTKVDIKR
In the case of B1, the Kd worked out at 0.206 nM in assay [1]; 0.172 nM in assay [2]; 0.0172 nM in assay [3]; 0.405 nM in assay [4]; 0.216 nM in assay [5]; 0.297 nM in assay [6].

B2: 4C4.4 IgG (antibody, V domains shown)
VH: QVQLQESGPGLVKPSQTLSLTCTVSGASISNSPYFWNWFRQFPGKGLEWIGYIYWSGSTNYNPSLKSRLAMSVDTSKNQFSLKLTSATAADTAVYYCARDQGGGTVVKENWFDPWGQGTLVTVSS
VL: DIVMTQSPSSLSASVGDRLTMTCQASQDIGKHLNWYQQKAGKPPKLLIYGASNLKTGVPSRFSAGVSWTDFTFTISNVQPEDVATYYCQQSYSTPPTFGQGTKVEIKR
With B2, the Kd in assay [7] came out at 0.087 nM; in assay [8] it was 0.016 nM.

B3: 8DC4.4 IgG (antibody, V domains shown)
VH: QVQLQESGPGLVKPSQTLSLTCTVSGGSISSDNYFWTWIRQSPGKGLEWLGHISYSGRSYTNLSLKRRLTISVDTSKNQFSLNLNSVTAADTAVYYCARERLPPGRGYDMDVWGQGTTVTVSS
VL: DIVMTQSPSSVSASVGDRVTITCRASRDISIYLNWYQQKPGKAPKLLIYAASNLETGVPSRFSGSGSGTDFTLTISSLQPEDVATYYCQQSYNTPLTFGGGTKLEIKR
As for B3, the dissociation constant (Kd) in assay [7] amounted to 0.146 nM; in assay [8], 0.117 nM.

B4: Hu6F11 IgG (antibody, V domains shown)
VH: EVQLVESGGGLVKPGGSLRLSCAASGFTFSNYGMSWVRQAPGKGLEWVASISSGGSYIYYPDSVKGRFTISRDNAKNSLYLQMNSLRAEDTAVYYCARRKGYDSLYWYFDVWGQGTLVTVSS
VL: DVVMTQSPSSLSAFVGDRVTITCRASQGIRSYLAWFQQKPGKAPKLLIYAASTLQSGVPSRFSGSGSGTEFTLTVSGLQPEDFATYYCQQYNSYPLTFGGGTRLEIKR
On to B4, for which the equilibrium dissociation constant (Kd) came out at 0.00334 nM in assay [1]; 0.0037 nM in assay [2]; 0.0218 nM in assay [3]; 0.0137 nM in assay [4]; 0.0283 nM in assay [5]; 0.00803 nM in assay [6].

B5: 6F5.4 IgG (antibody, V domains shown)
VH: EVQLVPSGGNLVQPGGSLRLSCAATGPIDYHWMTWVRQAPGQGLEWVANINLDGTEKFYVDSVKGRFTVSRDNRKSSVFLQMNNLRVDDTAVYYCARLQWGERDGWLSPWGQGTLVTVSS
VL: DIVMTQSPPSLSASVGDRVRLTCRASQSIGRSLNWYQQKPGKAPKLLIYDASALHSGVPSRFSGSGSGTDFTLTISGLQPEDFATYYCQQTNDLPVTFGGGTKLEIKR
B5: the Kd came out at 0.00374 nM in assay [1]; 0.0004 nM in assay [2]; 0.00588 nM in assay [3]; 0.0258 nM in assay [4]; 0.00016 nM in assay [5]; 0.00519 nM in assay [6].
